Data: patent US20130189255A1, “FUSIONS AND CONJUGATES OF INSULINOTROPIC AGENTS” (GLAXO GROUP LIMITED, priority 2008, published 2013)
Read-outs that look alike come from different tables or passages of the source.

Assays:
RSA = RSA (Rattus norvegicus, UniProt P02770); assay: Surface plasmon resonance (Biacore, streptavidin chip with biotinylated serum albumin), RSA; assay type: binding; settings: Biacore SA chip, HBS-EP buffer; read-out: Affinity (KD) to RSA
Experimental: The analysis was performed using a streptavidin chip (SA) coated with biotinylated serum albumin. 200-1000 resonance units (RUs) of each serum albumin was immobilised on the chip. Flow cell 1 was uncoated, flow cell 2 was coated with HSA, flow cell 3 was coated with RSA and flow cell 4 was coated with CSA. A range of concentrations of fusion was prepared (in the range 15.6 nM to 2 μM by dilution into BIACORE HBS-EP buffer (0.01M HEPES, pH7.4, 0.15M NaCl, 3 mM EDTA, 0.005% surfactant P20) and flowed across the BIACORE chip.
Affinity (KD) was calculated from the BIACORE traces by fitting on-rate and off-rate curves to traces generated by concentrations of dAb in the region of the KD.

[1] = system: diet induced obese (DIO) mice; assay: Diet induced obese (DIO) mouse model of obesity; assay type: in vivo; settings: 0.01, 0.1, 1 mg/Kg sc, 10 days, compared to DOM7h-14 control
Experimental: This may be predictive for humans. Male C57B1/6 mice (purchased from Taconic) were fattened on 60% kcal high fat irradiated diet for 12 wks and then transferred to the in-house facility. Upon arrival, the mice were individually housed on alpha-dri bedding in a temperature and humidity controlled room (70-72° F., Humidity=48-50%, 5 AM/5 PM light cycle). The diet was changed to 45% high fat diet and the animals acclimated for 18 days. Prior to administration of test compound, mice were injected subcutaneously with saline once daily for three days and food consumption monitored. Mice were blocked and grouped such that body weight and food consumption were not different between or within groups.
Daily food consumption and body weight were measured daily for 10 days. […] It was therefore concluded that the data from this mouse study supports the hypothesis that DAT0115 would be a good clinical candidate.

[2] = set-up: species or system cynomolgus monkey (Macaca fascicularis); settings: cynomolgus monkey, in vivo, 0.1 mg/kg
Experimental: Briefly, protein was purified using batch absorption to protein L-agarose affinity resin followed by elution with glycine at pH 2.0 and neutralisation woth Tris PH 8.0. This was followed by ion exchange chromotography on a Resource S column using a 0-1M salt gradient in 20 mM acetate pH5.0. Fractions containing the desired protein were then combined and buffer exchanged into 100 mM NaCl, 20 mM citrate pH6.2. Protein was extensively QCed (including SDS-PAGE, mass spec, activity assay:GLP-1R-BA, pH check, osmolarity check), filter sterilised and endotoxin removed. Protein with confimed low endotoxin (<0.05 EU/mg protein) was then used for the in vivo study. Six female cynomolgus monkeys (Macaca fascicularis; Charles River Laboratories BRF, Houston, Tex., Primate Products, Miami, Fla. and/or Covance Research Products, Inc., Alice, Tex.) were used in this study. The monkeys were approximately 2 to 9 years old (with a body weight range of approximately 2 to 5 kilograms) at initiation of dosing. The monkeys were housed individually in stainless-steel cages in an environmentally controlled room(s) (64 F to 84 F; 30 to 70% relative humidity) with a 12-hour light/dark cycle. The female monkeys were offered approximately 6 biscuits twice daily of Monkey Diet #5038 (PMI Nutrition International, Richmond, Ind.) and a daily allotment of fresh fruit. […] Dose was at 0.1 mg/Kg. On the days of dosing, the first feeding occurred within approximately 1 hour post dose for each monkey (extended up to 2.5 hours post dose if study-related procedures required animals to be out of their local housing for an extended period of time). The second feeding was no sooner then two hours following the first feeding. For the purpose of environmental enrichment, additional fruit, legume and/or vegetable (e.g., grapes, baby carrots, peanuts) was provided to each monkey at or around the time of viability check or as a method of reward after acclimation or study-related procedures. Filtered tap water (supplied by Aqua Pennsylvania, Inc. and periodically analyzed) was available ad libitum. Plasma samples (approx 2 ml) were collected from the femoral vessel at predose (0 hour) and nominally at 5 minutes (iv group only), 0.5, 4, 8, 24, 48, 96, 144, 192, 288, 336, 504 and 672 hours after dosing. (PK samples from one of the animals in the iv dose group were only collected to 24 h so this animal has been excluded from the PK fitting). Analysis of samples was by mass spectrometry, and fitting of the data was using WinNonLin fitting software. PK parameters were as follows for iv administration (n=2): T1/2 67 h, MRT 46 h, Vz 327 ml/Kg and Cl 3.3 ml/hr/Kg; and for sc administration (n=3): T1/2 68 h, MRT 98 h, Vz 306 ml/Kg and Cl 3.1 ml/hr/Kg. Bioavailability was calculated as 99%.

human GLP-1 receptor = target: T1, human GLP-1 receptor (Homo sapiens, UniProt P43220); assay: GLP-1 receptor binding assay (GLP-1R BA), CHO 6CRE GLP1R luciferase reporter cells; assay type: cell-based
T1 construct: expressed in transfected cells; host or cells: CHO K1 (CHO 6CRE GLP1R)
Experimental: Fusions were buffer exchanged into 100 mM […], 20 mM citrate pH 6.2. […] Suspension culture was maintained for 24 hours. Cells were then diluted into 15 mM HEPES buffer (obtainable from Sigma), containing 2 mM L glutamine (2.5×10^5 cells/ml) and dispensed into 384-well plates containing 10 ul/well of the compound to be assayed. After the addition of assay control, plates were returned to the incubator for 3 h at 37° C. and 5% CO2. After the incubation, steady glo luciferase substrate (obtainable from Promega) was added to the wells as described in the kit and the plates sealed with self-adhesive plate seals (Weber Marking Systems Inc. Cat. No. 607780). Plates were placed in the reader (Viewlux, Perkin Elmer) and pre-incubated for 5 minutes prior to reading the […] and plotting of results. Compound was assayed at a range of concentrations in the presence and absence of 10 uM albumin, allowing a dose response curve to be fitted with and without the albumin.

[3] = rat, in vivo
Experimental: This was followed by ion exchange chromotography on a Resource S column using a 0-1M salt gradient in 20 mM acetate pH5.0. Fractions containing the desired protein were then combined and buffer exchanged into 100 mM NaCl, 20 mM citrate pH6.2. Protein was filter sterilised, buffer exchanged and Qced prior to use in vivo.
Calculated plasma levels were then used to fit pharmacokinetic parameters using WinNonLin software. Half life after subcutaneous and intravenous administration and bioavailability is outlined in the table 8 below. It was concluded from the results that all three compounds show desirable pharmacokinetic parameters in rat.

T1 sequence (P43220 24-463): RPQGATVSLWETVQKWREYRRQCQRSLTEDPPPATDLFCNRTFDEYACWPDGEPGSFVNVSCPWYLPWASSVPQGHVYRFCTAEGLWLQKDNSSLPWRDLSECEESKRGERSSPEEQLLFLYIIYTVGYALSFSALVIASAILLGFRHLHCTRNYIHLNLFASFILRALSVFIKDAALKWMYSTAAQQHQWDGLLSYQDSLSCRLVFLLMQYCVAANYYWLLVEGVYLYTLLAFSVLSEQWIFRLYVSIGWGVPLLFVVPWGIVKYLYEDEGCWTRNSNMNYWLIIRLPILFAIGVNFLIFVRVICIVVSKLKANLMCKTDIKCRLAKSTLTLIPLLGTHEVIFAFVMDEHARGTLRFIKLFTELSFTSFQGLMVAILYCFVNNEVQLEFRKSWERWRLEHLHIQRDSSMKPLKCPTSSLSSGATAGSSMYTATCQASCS
Sequence of RSA (P02770 25-608): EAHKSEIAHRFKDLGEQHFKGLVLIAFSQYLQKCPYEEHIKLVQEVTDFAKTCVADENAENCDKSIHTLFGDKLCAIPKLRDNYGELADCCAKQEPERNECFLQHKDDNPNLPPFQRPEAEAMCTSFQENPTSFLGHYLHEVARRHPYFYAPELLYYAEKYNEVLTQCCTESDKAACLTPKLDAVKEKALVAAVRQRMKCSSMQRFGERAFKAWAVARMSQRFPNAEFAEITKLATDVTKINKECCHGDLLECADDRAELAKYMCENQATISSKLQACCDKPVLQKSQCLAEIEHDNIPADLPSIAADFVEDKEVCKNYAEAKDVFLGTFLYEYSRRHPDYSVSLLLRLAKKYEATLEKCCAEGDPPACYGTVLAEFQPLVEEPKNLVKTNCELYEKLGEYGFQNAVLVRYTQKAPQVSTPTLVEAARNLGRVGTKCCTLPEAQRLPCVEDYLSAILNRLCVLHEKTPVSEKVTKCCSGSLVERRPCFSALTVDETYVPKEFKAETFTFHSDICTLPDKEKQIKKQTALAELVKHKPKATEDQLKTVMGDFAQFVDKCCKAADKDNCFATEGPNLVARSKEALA

For “Exendin 4 (G4S linker)3 DOM7h-14 dAb fusion [DAT0115]”, the Kd (RSA) was 2000 nM, the body weight [1] was “dose dependent reduction” and the food consumption [1] was “dose dependent reduction”. It also gave a Bioavailability [2] of 99%, a Cl ([2]; iv) of 3.3 mL/h/kg and an MRT ([2]; iv) of 46 h. The T1/2 ([2]; iv) was 67 h, the Vz ([2]; iv) was 0.327 L/kg and the Cl ([2]; sc) was 3.1 mL/h/kg. The MRT ([2]; sc) was 98 h, the T1/2 ([2]; sc) was 68 h and the Vz ([2]; sc) was 0.306 L/kg. For the same substance, the EC50 (human GLP-1 receptor; read-out: GLP-1R BA (10 uM albumin) EC50 (pM) n = 2, presence of 10 uM albumin) was 35 pM, the EC50 (human GLP-1 receptor; read-out: GLP-1R BA EC50 (pM) n = 3, absence of albumin) was 8.9 pM and the Bioavailability [3] was 81%. For the same substance, the “Half-life after intravenous administration” value ([3]; iv, 0.3 mg/kg) was 4.9 h.
